Laboratory results reported in publication PMC3041740, “Interplay between HIV Entry and Transportin-SR2 Dependency” (Retrovirology, 2011).

Biological target: T1, GST-TRN-SR2 (transportin-SR2) (UniProt Q9Y5L0-2 1-923)
T1 construct: transportin-SR2 (TRN-SR2, TNPO3, transportin 3); also called TNPO3; transportin 3; source: recombinant, expressed from pGEX-6P-2, purified using Glutathione Sepharose Resin
T1 sequence (looked up): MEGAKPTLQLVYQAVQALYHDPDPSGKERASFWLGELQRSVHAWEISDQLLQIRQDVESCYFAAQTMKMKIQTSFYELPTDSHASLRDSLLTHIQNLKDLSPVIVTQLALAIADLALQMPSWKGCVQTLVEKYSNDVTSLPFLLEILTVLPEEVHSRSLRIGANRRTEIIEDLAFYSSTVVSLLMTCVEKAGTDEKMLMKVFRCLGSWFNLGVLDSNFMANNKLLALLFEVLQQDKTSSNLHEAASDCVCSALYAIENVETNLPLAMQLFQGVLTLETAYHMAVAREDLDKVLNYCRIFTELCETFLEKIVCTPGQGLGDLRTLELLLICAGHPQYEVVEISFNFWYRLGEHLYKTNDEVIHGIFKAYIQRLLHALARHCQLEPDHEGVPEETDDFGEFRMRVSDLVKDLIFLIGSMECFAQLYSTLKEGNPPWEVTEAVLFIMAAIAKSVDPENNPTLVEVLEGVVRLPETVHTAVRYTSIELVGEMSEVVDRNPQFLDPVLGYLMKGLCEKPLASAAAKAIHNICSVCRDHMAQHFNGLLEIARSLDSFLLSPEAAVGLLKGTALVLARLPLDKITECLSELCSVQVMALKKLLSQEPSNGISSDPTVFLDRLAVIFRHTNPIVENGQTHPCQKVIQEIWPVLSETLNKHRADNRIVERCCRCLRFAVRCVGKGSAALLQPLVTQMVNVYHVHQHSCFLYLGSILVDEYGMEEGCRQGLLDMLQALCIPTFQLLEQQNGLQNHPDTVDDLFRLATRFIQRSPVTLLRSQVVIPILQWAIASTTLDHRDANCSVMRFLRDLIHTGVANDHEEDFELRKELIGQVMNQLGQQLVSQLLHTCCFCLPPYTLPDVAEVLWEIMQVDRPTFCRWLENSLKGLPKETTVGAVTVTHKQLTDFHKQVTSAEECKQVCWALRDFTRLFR
Test: AlphaScreen or HTRF; 10 nM GST-TRN-SR2 titrated with 1 to 150 nM His6-tagged protein; glutathione donor and nickel-chelate acceptor beads; 25 mM Tris/HCl pH 7.4, 150 mM NaCl, 1 mM MgCl2, 0.1% Tween-20, 0.1% BSA; 1 h at 4°C, then 1.5 h at room temperature with beads; apparent Kd
Details: both partners purified

B1: HIV-1 integrase, C-terminally His6-tagged (enzyme)
chain: FLDGIDKAQEEHEKYHSNWRAMASDFNLPPVVAKEIVASCDKCQLKGEAMHGQVDCSPGIWQLDCTHLEGKVILVAVHVASGYIEAEVIPAETGQETAYFLLKLAGRWPVKTVHTDNGSNFTSTTVKAACWWAGIKQEFGIPYNPQSQGVIESMNKELKKIIGQVRDQAEHLKTAVQMAVFIHNFKRKGGIGGYSAGERIVDIIATDIQTKELQKQITKIQNFRVYYRDSRDPVWKGPAKLLWKGEGAVVIQDNSDIKVVPRRKAKIIRDYGKQMAGDDCVASRQDED
Kd: 36.3 ± 2.3 nM

B2: MLV integrase, C-terminally His6-tagged (enzyme)
chain: IENSSPYTSEHFHYTVTDIKDLTKLGAIYDKTKKYWVYQGKPVMPDQFTFELLDFLHQLTHLSFSKMKALLERSHSPYYMLNRDRTLKNITETCKACAQVNASKSAVKQGTRVRGHRPGTHWEIDFTEIKPGLYGYKYLLVFIDTFSGWIEAFPTKKETAKVVTKKLLEEIFPRFGMPQVLGTDNGPAFVSKVSQTVADLLGIDWKLHCAYRPQSSGQVERMNRTIKETLTKLTLATGSRDWVLLLPLALYRARNTPGPHGLTPYEILYGAPPPLVNFPDPDMTRVTNSPSLQAHLQALYLVQHEVWRPLAAAYQEQLDRPVVPHPYRVGDTVWVRRHQTKNLEPRWKGPYTVLLTTPTALKVDGIAAWIHAAHVKAADPGGGPSSRLTWRVQRSQNPLKIRLTREAP
notes: integrase (IN) of murine leukemia virus (MLV); also called His6-tagged MLV IN; not shown: His6, C-terminal, kept
Kd: 17.5 ± 0.5 nM
